Experiments:
[1] = system: A. nidulans α-1,2-mannosidase IB; assay: Effect of EDTA, calcium and deoxymannojirimycin on enzyme activity; type: biochemical, Aspergillus nidulans; settings: for effect of addition on enzyme activity: added to purified α-1,2-mannosidase IB
Method: (§1) FIG. 8: Biochemical characterization of purified A. nidulans α-1,2-mannosidase IB (A) and α-1,2-mannosidase IC (B) enzymes. Enzyme activity was assayed by digestion of the synthetic substrate Man-α1,2-Man-OCH3 at 37 °C for 3 hours. Released mannose was detected using a colorimetric glucose oxidase/horseradish peroxidase assay (see Materials and Methods) and measuring absorbance at […].
(§2) The α-mannosidase IB and IC expression vectors were introduced into the genome of A. nidulans strain T580 (ura-) by cotransformation and complementation with the pJR15 vector, which contained the selectable ura marker. It has been shown that when two plasmids are used simultaneously in the transformation of fungal protoplasts (cotransformation), as many as 60% of transformed protoplasts will integrate both of the plasmids into the genome (Wernars et al. 1987, Mol. Gen. Genet., 209: 71-77). Protoplasts were prepared according to the method of Fincham (1989, Microbiol. Rev., 53: 148-170), using Sigma Lysing Enzyme for cell wall digestion. Protoplasts of strain T580 (uridine auxotroph) were co-transformed with 1 μg of the selectable marker pJR15, which converts transformed cells to uridine prototrophy, and with 1 μg of either ANIBSEC or ANICSEC. Transformants were initially screened for integration of […] by selection on minimal media, and positive transformants were then transferred to individual complete media plates. Transformants were selected for prototrophy on uridine deficient minimal media and transferred to complete media plates. To confirm secretion of active recombinant α-1,2-mannosidase IB or IC into the culture media of putative transformants, specific activity assays were performed. After 60-65 hours of incubation, aliquots of culture media were assayed for α-1,2-mannosidase activity and compared to the non-transformed T580 strain. Total culture filtrate protein was precipitated and resuspended in assay buffer. Mannosidase assays were performed using the disaccharide Man-α-1,2-Man-OCH3 as a substrate in a coupled enzyme assay as described earlier (Scaman et al. 1996, Glycobiol., 6: 265-270), with some modifications. Digestion of the substrate was performed in a 30 μl final volume containing 10 mM sodium acetate/acetic acid buffer (pH 5.0) and 3 μl 100 mM disaccharide Man-α-1,2-Man-OCH3 incubated at 37° C. for 3 hours. Released mannose was detected by addition of 30 μl 1.25M Tris-HCl (pH7.6) and 240 μl of developing solution, containing glucose oxidase (55 U/ml), horseradish peroxidase (1 U/ml) and o-dianisidine dihydrochloride (70 μg/ml) followed by incubation at 37° C. for 3 hours. Absorbance measurements at 450 nm were used to determine final color change. A standard curve of free mannose concentrations was determined for comparison.

[2] = system: A. nidulans α-1,2-mannosidase IC; assay: as above; type: biochemical, Aspergillus nidulans; settings: for effect of addition on enzyme activity: added to purified α-1,2-mannosidase IC
Method: as §1, §2

[3] = α-1,2-mannosidase specific activity assay of secreted recombinant enzymes (coupled enzyme assay); type: biochemical; settings: purified enzyme; for optimal pH for highest activity: FIG. 8; for specific activity: non-limiting amounts of Man-α-1,2-Man-OCH3, 1 U = 1 nmol mannose per hour
Method: as §1
as §2, with “Digestion of the substrate was performed in a 30 μl final volume containing 10 mM sodium acetate/acetic acid buffer (pH 5.0) and 3 μl 100 mM disaccharide Man-α-1,2-Man-OCH3 incubated at 37° C. for 3 hours.” left out, “comparison. […] Protein concentrations were determined by the Bradford method (Bradford 1976, Anal. Biochem., 72: 248-254) and comparison to a bovine serum albumin (BSA) standard curve. […]” for “comparison.”

[4] = Digestion of Man9GlcNAc2, cleavage products by MALDI-TOF mass spectrometry; type: biochemical; settings: for cleavage of Man9GlcNAc2 (substrate specificity): non-limiting conditions, about 100 ng enzyme, 10 pmol Man9GlcNAc2
Method: FIG. 9: Partial digestion of Man9GlcNAc2 (M9) with A. nidulans α-1,2-mannosidase IB (A) and A. nidulans α-1,2-mannosidase IC (B) by MALDI-TOF mass spectrometry. Peaks represent parent molecules ionized with sodium (M+Na+). Several different digestion products are produced in each reaction, including Man8GlcNAc2 (M8), Man7GlcNAc2 (M7), Man6GlcNAc2 (M6) and Man5GlcNAc2 (M5).
The substrate specificity of the α-1,2-mannosidase IB and IC from A. nidulans was determined by analyzing the cleavage products of Man9GlcNAc2 by MALDI-TOF mass spectrometry. Approximately 100 ng of either α-1,2-mannosidase IB or IC protein was used to digest 10 pmol of Man9GlcNAc2 (Sigma) in a final volume of 10 μl. Digestion products were analyzed by matrix assisted laser desorption ionization time of flight mass spectrometry (MALDI-TOF-MS) using a Voyager biospectrometry workstation (Applied Biosystems, Foster City Calif.). Samples were mixed in a 1:1 ratio with the matrix (10 mg/ml 2,5-dihydroxybenzoic acid; 50% acetonitrile) and 1 μl was loaded onto a sample plate for analysis. […] Accelerating voltage was 20000V and the grid voltage was set at 94%. Data were analyzed using Data Explorer software (Applied Biosystems, Foster City Calif.). […] This supports the classification of both the α-1,2-mannosidase IB and IC in subgroup 2.
The rate at which various intermediates were produced during the digestion of Man9GlcNAc2 to Man5GlcNAc2 was determined by analyzing the cleavage products during limited time-course experiments (FIG. 9). […] This led to the accumulation of Man7GlcNAc2 and Man6GlcNAc2 intermediates during the progress of the digestion, which were eventually converted to Man5GlcNAc2.

[5] = limited time-course experiments, FIG. 9

O=C(O)CN(CCN(CC(=O)O)CC(=O)O)CC(=O)O [EDTA]
effect of addition on enzyme activity [1]: significantly reduced enzyme activity | effect of addition on enzyme activity [2]: significantly reduced enzyme activity

OC[C@H]1NC[C@@H](O)[C@@H](O)[C@@H]1O [deoxymannojirimycin]
effect of addition on enzyme activity [1]: significant decrease in activity | effect of addition on enzyme activity [2]: significant decrease in activity

[Ca+2] [calcium]
effect of addition on EDTA-reduced enzyme activity ([1]; added after EDTA, α-1,2-mannosidase IB): restored | effect of addition on EDTA-reduced enzyme activity ([2]; added after EDTA, α-1,2-mannosidase IC): restored

B1: α-1,2-mannosidase IC: Class I α-1,2-mannosidase from A. nidulans (mnsIC, SEQ ID NO: 18), expressed from vector ANICSEC (protein)
chain: MPRRWSSLISITAIFLVLFFLLHRNTDTPRAANRATNGPANGFARQQSICPSTPPQPPYNRTSTGGFNWGEIPVRYPVSDFIPLSTNSPATLPRIQRSSFPLQSSITKSRQAAVKGAFQRAWTSYTTHAWKADEVRPITAGSRNNFGGWGATLVDNLDTLLIMGLDEEFAAAVDALADIEFSPHSSPSSSQSTINIFETTIRYLGGLLAAYDLTGCRETRLLDKAIQLGEMIYTSFDTENRMPVPRWNLHKAGNGEPQRAAVQGVLAELASSSLEFTRLSQLTGDMRYFDAASRITDLLDSQAGHTRIPGLWPVSVNLQKGDLTRGSTFSFGGMADSAYEYLGKTYRLLGGVGKGPQYERLARNALDAGIRHLLFRPMTPDHADILLPGVAHATSSSVGLEPRTEHLACFVGGMYALAGKLFSNQTYLDTGRKLTDGCIWYYDNSPLGIMPEMFTVPACPSVAECPWDETRGGIYTYVRDGHYFLRPEAMESIFYMWRITGDEKYREAAWRMFTAIEAVTKTEFGNAAVRDVMVEEGNVKREDSMESFWMAETLKYLYLIFGETDLVSLDDWVFNTEAHPLRGAGS
modifications: Aspergillus nidulans
optimal pH for highest activity [3]: 5.0 | specific activity [3]: 4.56 U/µg | rate of conversion of Man7GlcNAc2 and Man6GlcNAc2 intermediates to Man5GlcNAc2 [4, 5]: more rapidly than the α-1,2-mannosidase IB enzyme | rate of digestion of Man9GlcNAc2 to intermediates [4, 5]: rapidly degraded Man9GlcNAc2 to Man7GlcNAc2 | cleavage of Man9GlcNAc2 (substrate specificity) [4]: cleaved Man9GlcNAc2 completely and efficiently to a Man5GlcNAc2 structure

B2: α-1,2-mannosidase IB: Class I α-1,2-mannosidase from A. nidulans (mnsIB, SEQ ID NO: 6), expressed from vector ANIBSEC (protein)
chain: MRTLLALAAFAGFAAARVPATAITRPVMRSDSRADAVKEAFSHAWDGTTNTAFPHDELHPISNGTGDSRNHWGASAVDALSTAIMMRNATIVNQILDHIAAVDTSKTNAMVSLFETTIRTLAGMISGTDLLKGPAAGLVDDSRVDVLLEQSQNLAEVLKFAFDTPSGVPTNMINITSGGNDGATTNGLAVTGTLVLEWTRLSDLTGNDETARLSQRAEDTLLHPEPAQTEPFPGLIGSAVNIADGKLANGHISWNGGADSTTETLIKMTVTDPERFGLTRDRWVAAAESSINHLASHPSTRPDVTFLATTNEEHQLGLTSQHLTCFDGGSFLLGGTLLDRQDFVDFGLDLVAGCHETTNSTLTGIGPEQFSWDPNGVPDSQKELFERAGFTINSGQTILRPEVIESFTTAWRVTGDGTTLEWVWNAFTNINKTCRTATGFAGLENVNAANGGGRIDNQESFMFAEVLKTSFLTFAPEDDWQVQKGSGNTFVTNTEAHPFKVTTPQ
modifications: Aspergillus nidulans
optimal pH for highest activity [3]: 5.0 | specific activity [3]: 7.52 U/μg | rate of digestion of Man9GlcNAc2 to intermediates [4, 5]: rapidly degraded Man9GlcNAc2 to Man7GlcNAc2 | cleavage of Man9GlcNAc2 (substrate specificity) [4]: cleaved Man9GlcNAc2 completely and efficiently to a Man5GlcNAc2 structure

Source: patent publication US20050260627A1, “Mannosidases and methods for using same” (University of Victoria Innovation and Development …, priority 1999, published 2005)
